Measured values reported in US6124449, “High affinity TGFβ nucleic acid ligands and inhibitors” (NeXstar Pharmaceuticals, Inc.).
Numbering of substitutions follows the chain as printed.

Assays:
TGF-beta1 (hTGF-beta1) [1] = target: T1, TGF-beta1 (hTGF-beta1) (Homo sapiens, UniProt P01137 P01137:279-390); test: filter; biphasic; Kd1 3.7±0.6 nM; conditions: tags: R&D Systems; biotinylated form (NFTG0) used for BIAcore; chain copies: 2
TGF-beta1 (hTGF-beta1) [2] = target: T1, TGF-beta1 (hTGF-beta1); test: filter; biphasic; Kd1 14.0±6.4 nM; conditions: tags: R&D Systems; biotinylated form (NFTG0) used for BIAcore; chain copies: 2
TGF-beta1 (hTGF-beta1) [3] = target: T1, TGF-beta1 (hTGF-beta1); test: filter; biphasic; Kd1 8.5±1.8 nM; conditions: tags: R&D Systems; biotinylated form (NFTG0) used for BIAcore; chain copies: 2
TGF-beta1 (hTGF-beta1) [4] = target: T1, TGF-beta1 (hTGF-beta1); test: filter; biphasic; Kd1 4.4±1.6 nM; conditions: tags: R&D Systems; biotinylated form (NFTG0) used for BIAcore; chain copies: 2
TGF-beta1 (hTGF-beta1) [5] = target: T1, TGF-beta1 (hTGF-beta1); test: cell_activity; MLEC assay; conditions: tags: R&D Systems, biotinylated form (NFTG0) used for BIAcore, chain copies: 2
Procedure: Cells were plated at 10^5/mL in 96-well plates in MEM, 10 mM HEPES and 0.2% FBS. Following 4 hours of incubation at 37° C., when cells appeared to attach to the well surface, TGFβ1 was added at 2 pM with or without TGFβ1 ligands that ranged from 0.1 nM to 1 µM. In a second assay performed in order to determine cross-species reactivity, rather than using hTGFβ, a conditioned serum-free medium (CM) was used. CM was conditioned by culturing it in murine 3T3 fibroblast for 48 hours. Before use, this conditioned medium was heat treated at 80° C. for 10 minutes to activate the 3T3 cell derived TGFβ and then it was diluted to 50% and supplemented with 0.2% murine serum. In each assay, hTGFβ1 (or CM) was diluted appropriately in MEM and FBS (0.2% or murine serum) and the ligands were diluted in MEM. TGFβ1 (or CM) and ligand dilutions at 10× the final concentration were premixed at equal volumes and then were added to the cells. Following addition of the TGFβ1 (or CM)-ligand mixture, the cells were incubated for 16–18 hours prior to addition of ^3H-thymidine at 0.25 µCi per well and continued incubation for 7–8 additional hours. After incubation, the cells were washed and harvested with SKATRON filtering units and ^3H-thymidine incorporation in cellular DNA was quantitated by scintillation counting in Ecoscint. Data were plotted and analyzed as described in Park et al. (1990) J. Exp. Med. 171:1073) and Dower et al. (1984) J. Immunol.

TGF-beta1 (hTGF-beta1) [6] = target: T1, TGF-beta1 (hTGF-beta1); test: filter; biphasic; Kd1 13.5±4.2 nM; conditions: tags: R&D Systems; biotinylated form (NFTG0) used for BIAcore; chain copies: 2
TGF-beta1 (hTGF-beta1) [7] = target: T1, TGF-beta1 (hTGF-beta1); test: filter; biphasic; Kd1 5.6±2.0 nM; conditions: tags: R&D Systems; biotinylated form (NFTG0) used for BIAcore; chain copies: 2
TGF-beta1 (hTGF-beta1) [8] = target: T1, TGF-beta1 (hTGF-beta1); test: filter; biphasic; Kd1 3.7±1.5 nM; conditions: tags: R&D Systems; biotinylated form (NFTG0) used for BIAcore; chain copies: 2
TGF-beta1 (hTGF-beta1) [9] = target: T1, TGF-beta1 (hTGF-beta1); test: filter; monophasic; conditions: tags: R&D Systems; biotinylated form (NFTG0) used for BIAcore; chain copies: 2
TGF-beta1 (hTGF-beta1) [10] = target: T1, TGF-beta1 (hTGF-beta1); test: filter; monophasic, plateau 8%; conditions: tags: R&D Systems; biotinylated form (NFTG0) used for BIAcore; chain copies: 2
TGF-beta1 (hTGF-beta1) [11] = target: T1, TGF-beta1 (hTGF-beta1); test: filter; monophasic, plateau about 10%; Table 3 and Table 4 sequences differ slightly; conditions: tags: R&D Systems; biotinylated form (NFTG0) used for BIAcore; chain copies: 2
TGF-beta1 (hTGF-beta1) [12] = target: T1, TGF-beta1 (hTGF-beta1); test: filter; biphasic; Kd1 4.2±2.2 nM; conditions: tags: R&D Systems; biotinylated form (NFTG0) used for BIAcore; chain copies: 2
TGF-beta1 (hTGF-beta1) [13] = target: T1, TGF-beta1 (hTGF-beta1); test: filter; biphasic; Kd1 58.2 nM; P2 1.2%; conditions: tags: R&D Systems; biotinylated form (NFTG0) used for BIAcore; chain copies: 2
TGF-beta1 (hTGF-beta1) [14] = target: T1, TGF-beta1 (hTGF-beta1); test: filter; biphasic; Kd1 56.6 nM; P2 2.4%; conditions: tags: R&D Systems; biotinylated form (NFTG0) used for BIAcore; chain copies: 2
TGF-beta1 (hTGF-beta1) [15] = target: T1, TGF-beta1 (hTGF-beta1); test: filter; biphasic; Kd1 4.05±1.5 nM; conditions: tags: R&D Systems; biotinylated form (NFTG0) used for BIAcore; chain copies: 2
TGF-beta1 (hTGF-beta1) [16] = target: T1, TGF-beta1 (hTGF-beta1); test: filter; biphasic; Kd1 2.82±1.7 nM; conditions: tags: R&D Systems; biotinylated form (NFTG0) used for BIAcore; chain copies: 2

T1 sequence (P01137 279-390, one chain of several): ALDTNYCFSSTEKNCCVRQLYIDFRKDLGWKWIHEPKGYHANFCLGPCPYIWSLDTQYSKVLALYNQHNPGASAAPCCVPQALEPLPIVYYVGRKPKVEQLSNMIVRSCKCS

B1: 40-06 (ssRNA)
RNA: GGGAGGACGAUGCGGUUAGGGGCGUCAACACCGCUAUCAUAAUUUUCGCCUUCCCCAGACGACUCGCCCGA
modifications: 2'-F C and U
Kd (TGF-beta1 (hTGF-beta1) [1]): 0.0016 nM

B2: 40-32 (ssRNA)
RNA: GGGAGGACGAUGCGGUUAUGGGCGUCAACACCGCUAUUACAACUUUCGCCUCCAGACGACUCGCCCGA
modifications: 2'-F C and U
Kd (TGF-beta1 (hTGF-beta1) [2]): 0.005 nM

B3: 40-54 (ssRNA)
RNA: GGGAGGACGAUGCGGUUAGGGGCGUCAACACCGCUAUCAUAACUUUCGCUUCCCCAGACGACUCGCCCGA
modifications: 2'-F C and U
Kd (TGF-beta1 (hTGF-beta1) [3]): 0.00675 nM

B4: 40-58 (ssRNA)
RNA: B3 RNA with G19U, C38U, U40C, U50C
modifications: 2'-F C and U
Kd (TGF-beta1 (hTGF-beta1) [4]): 0.0053 nM
Ki (TGF-beta1 (hTGF-beta1) [5]): 0.9 nM

B5: 40-61,76 (ssRNA)
RNA: B3 RNA with C38U, U40C, C43U, U44C, C52U
modifications: 2'-F C and U
Kd (TGF-beta1 (hTGF-beta1) [6]): 0.001 nM

B6: 40-64 (ssRNA)
RNA: B3 RNA with C38U, U40C, C43U, U44C, C49U, U50C, C52U
modifications: 2'-F C and U
Kd (TGF-beta1 (hTGF-beta1) [7]): 0.0031 nM

B7: 40-77 (ssRNA)
RNA: GGGAGGACGAUGCGGUUAUGGGCGUCAACACCGCUAUUACAACUUUCGCCCCCCAGACGACUCGCCCGA
modifications: 2'-F C and U
Kd (TGF-beta1 (hTGF-beta1) [8]): 0.00173 nM

B8: 40-08 (ssRNA)
RNA: GGGAGGACGAUGCGGCGCAAGGUUACGCCGUCGGACCCUGCUGCCAACAUCCUCCCAGACGACUCGCCCGA
modifications: 2'-F C and U
Kd (TGF-beta1 (hTGF-beta1) [9]): 15.4 nM

B9: 40-13 (ssRNA)
RNA: GGGAGGACGAUGCGGAGCAAGGUUACGAGGUCGGACCCUGCUGCCAACAUCCUCCCCAGACGACUCGCCCGA
modifications: 2'-F C and U
Kd (TGF-beta1 (hTGF-beta1) [9]): 15.4 nM

B10: 40-20 (ssRNA)
RNA: B9 RNA with A16U, G17A, A28C, G29C
modifications: 2'-F C and U
Kd (TGF-beta1 (hTGF-beta1) [9]): 11.2 nM

B11: 40-33 (ssRNA)
RNA: B9 RNA with A28C, G29C
modifications: 2'-F C and U
Kd (TGF-beta1 (hTGF-beta1) [9]): 26.6 nM

B12: 40-36 (ssRNA)
RNA: GGGAGGACGAUGCGGGUCAAGGUUACGCCGUCGGACCCUACUGCCCCCAGACGACUCGCCCGA
modifications: 2'-F C and U
Kd (TGF-beta1 (hTGF-beta1) [9]): 41.7 nM

B13: 40-40 (ssRNA)
RNA: B9 RNA with A16C, G17C, A28C, G29C, G40A, A49U
modifications: 2'-F C and U
Kd (TGF-beta1 (hTGF-beta1) [9]): 18 nM

B14: 40-44 (ssRNA)
RNA: B9 RNA with A16U, A28C, G29C
modifications: 2'-F C and U
Kd (TGF-beta1 (hTGF-beta1) [9]): 11.1 nM

B15: 40-29 (ssRNA)
RNA: GGGAGGACGAUGCGGGACCCUUUUCUGCGAUUCAACUCGUACGUCUUCUCACGUGCAGACGACUCGCCCGA
modifications: 2'-F C and U
Kd (TGF-beta1 (hTGF-beta1) [9]): 10.9 nM

B16: 20-04 (ssRNA)
RNA: GGGAGGACGAUGCGGUGUCUUUAGCUUAGGUGAUUCCUUCUGCCGCAGACGACUCGCCCGA
modifications: 2'-F C and U
Kd (TGF-beta1 (hTGF-beta1) [10]): 0.2 nM

B17: 20-05 (ssRNA)
RNA: GGGAGGACGAUGCGGUGUCUCUACCUUAGGUUGAUUCCUUCUACCGCAGACGACUCGCCCGA
modifications: 2'-F C and U
Kd (TGF-beta1 (hTGF-beta1) [11]): 0.11 nM

B18: 40-19 (ssRNA)
RNA: GGGAGGACGAUGCGGUUAGCGCGAGUUCAACACCGCAUGUGAUUCUUUCGCCUCCCAGACGACUCGCCCGA
modifications: 2'-F C and U
Ki (TGF-beta1 (hTGF-beta1) [5]): 28 nM
Kd (TGF-beta1 (hTGF-beta1) [12]): 0.0037 nM

B19: 30-03 (ssRNA)
RNA: B16 RNA with U26C, U27C
modifications: 2'-F C and U
Kd (TGF-beta1 (hTGF-beta1) [13]): 0.262 nM

B20: 30-06 (ssRNA)
RNA: B16 RNA with U18C, U31C, G32U, A33U, U35G
modifications: 2'-F C and U
Kd (TGF-beta1 (hTGF-beta1) [14]): 0.0741 nM

B21: 30-10 (ssRNA)
RNA: B16 RNA with U26C
modifications: 2'-F C and U
Kd (TGF-beta1 (hTGF-beta1) [15]): 0.0755 nM

B22: 30-12,24,21,40,41 (ssRNA)
RNA: GGGAGGACGAUGCGGUGUCUAUAGCCUGAUUUUUAAUCUCUGCCGCAGACGACUCGCCCGA
modifications: 2'-F C and U
Kd (TGF-beta1 (hTGF-beta1) [16]): 0.0608 nM

B23: 30-34 (ssRNA)
RNA: GGGAGGACGAUGCGGUGUCUAUAGCCUUGAUUACAUCAUCUGCCUCAGACGACUCGCCCGA
modifications: 2'-F C and U
Kd (TGF-beta1 (hTGF-beta1) [9]): 9.5 nM

B24: 30-37 (ssRNA)
RNA: B16 RNA with A23G, U26C
modifications: 2'-F C and U
Kd (TGF-beta1 (hTGF-beta1) [9]): 2.65 nM

B25: 30-43 (ssRNA)
RNA: B16 RNA with U26C
modifications: 2'-F C and U
Kd (TGF-beta1 (hTGF-beta1) [9]): 50.5 nM

B26: 30-15 (ssRNA)
RNA: GGGAGGACGAUGCGGUUGACCGUUAAGACGGCAUGAUGUGGUCCGCAGACGACUCGCCCGA
modifications: 2'-F C and U
Kd (TGF-beta1 (hTGF-beta1) [9]): 55.3 nM

B27: 30-22 (ssRNA)
RNA: B26 RNA with G18A, U24A, G40U, G41U
modifications: 2'-F C and U
Kd (TGF-beta1 (hTGF-beta1) [9]): 2.47 nM

B28: 30-08 (ssRNA)
RNA: GGGAGGACGAUGCGGCGGAAUUUUUGUUGAGCCGUAUGCCGCCAGACGACUCGCCCGA
modifications: 2'-F C and U
Kd (TGF-beta1 (hTGF-beta1) [9]): 10.2 nM

B29: 40-38 (ssRNA)
RNA: GGGAGGACGAUGCGGAGAUAAUUAUCAGCGGUGGACGGGGUGCCGGUACUGCCGCCAGACGACUCGCCCGA
modifications: 2'-F C and U
Kd (TGF-beta1 (hTGF-beta1) [9]): 21.8 nM

B30: 40-14 (ssRNA)
RNA: GGGAGGACGAUGCGGCAUUAUGGCGUCAACAUGCCGGUUUUCGAUUCUCAUUGUCCAGACGACUCGCCCGA
modifications: 2'-F C and U
Ki (TGF-beta1 (hTGF-beta1) [5]): 3.9 nM

B31: 40-16 (ssRNA)
RNA: B3 RNA with C38U, U40C, A42U, U50C
modifications: 2'-F C and U
Ki (TGF-beta1 (hTGF-beta1) [5]): 0.6 nM

B32: 40-55 (ssRNA)
RNA: GGGAGGACGAUGCGGUUAGGGGCGUCAACACCGCUAUUCAACCUUCGCUUCCCCAGACGACUCGCCCGA
modifications: 2'-F C and U
Ki (TGF-beta1 (hTGF-beta1) [5]): 2.9 nM

B33: 40-56 (ssRNA)
RNA: GGGAGGACGAUGCGGUUAGGGCGUCAACACCGCUAUUACAACUUUCGCCUCCCCAGACGACUCGCCCGA
modifications: 2'-F C and U
Ki (TGF-beta1 (hTGF-beta1) [5]): 7.4 nM

B34: 40-60 (ssRNA)
RNA: B1 RNA with G19U, C38U, U40C, A42G, U52C
modifications: 2'-F C and U
Ki (TGF-beta1 (hTGF-beta1) [5]; label: 5'-biotin for BIAcore specificity, proposed double pseudoknot): 0.8 nM

B35: 40-12 (ssRNA)
RNA: B15 RNA with U23G, C42G, C45U
modifications: 2'-F C and U
Ki (TGF-beta1 (hTGF-beta1) [5]): 6.88 nM
